Here are results for one molecule from patent US20140086835A1 (UNIVERSITY OF NORTH CAROLINA AT CHAPEL HILL, published 2014).

As a reminder, the Kd is a measure of binding affinity in units of concentration. Broadly, the koff is the first-order rate constant of dissociation.

The target in this experiment is T1, recombinant human PSMA (extracellular domain) (human, UniProt Q04609 44-750).
T1 construct: extracellular domain; Bought (R&D Systems); Amine-coupled to a CM5 chip; also called prostate specific membrane antigen
As to the kind of experiment: SPR (BIAcore 2000), PSMA on CM5 chip, 1:1 Langmuir fit. (In general: Surface plasmon resonance follows binding to a sensor surface in real time, without labels.)

T1 sequence (Q04609 44-750): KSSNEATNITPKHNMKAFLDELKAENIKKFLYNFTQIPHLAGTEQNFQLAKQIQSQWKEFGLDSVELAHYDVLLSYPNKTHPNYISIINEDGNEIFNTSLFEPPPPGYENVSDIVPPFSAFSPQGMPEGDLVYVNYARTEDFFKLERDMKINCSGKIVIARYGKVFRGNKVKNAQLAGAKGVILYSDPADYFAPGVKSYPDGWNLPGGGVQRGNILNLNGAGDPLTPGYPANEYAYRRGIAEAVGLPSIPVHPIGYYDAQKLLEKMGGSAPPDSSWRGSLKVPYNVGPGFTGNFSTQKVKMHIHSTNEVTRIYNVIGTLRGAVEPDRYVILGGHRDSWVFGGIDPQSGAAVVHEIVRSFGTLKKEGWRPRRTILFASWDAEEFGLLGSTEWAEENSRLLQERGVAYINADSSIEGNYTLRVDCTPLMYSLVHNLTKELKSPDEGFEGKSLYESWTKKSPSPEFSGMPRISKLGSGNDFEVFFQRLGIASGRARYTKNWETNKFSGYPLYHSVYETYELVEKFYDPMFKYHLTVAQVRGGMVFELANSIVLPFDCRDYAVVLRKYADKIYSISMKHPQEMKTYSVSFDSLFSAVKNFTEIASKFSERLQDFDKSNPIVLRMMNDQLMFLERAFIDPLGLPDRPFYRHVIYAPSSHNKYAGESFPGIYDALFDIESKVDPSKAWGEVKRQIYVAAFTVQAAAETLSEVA

B1: heptameric PSMA-binding peptide targeting ligand (designed binder)
chain: MWQPDTAHHWATLGPQPQPKPQPKPEPEPQPQGGMPPRPLDVLNRSLKSPVIVRLKGGREFRGTLDGYDIHMNLVLLDAEEIQNGEVVRKVGSVVIRGDTVVFVSPAPGGEHHHHHH
notes: Self-assembled homoheptamer; also called PSMA-Heptamer; P^PSMA heptamer
As to B1, the Kd is 0.02 µM and the off-rate (koff) is 1.09e-06 s⁻¹.
